Here are results for one molecule from patent publication US20070184022A1.

For this experiment, the target named is T1, H2-Kb molecules in the microsomes of RAW309Cr.1 cells (murine).
T1 chain 1: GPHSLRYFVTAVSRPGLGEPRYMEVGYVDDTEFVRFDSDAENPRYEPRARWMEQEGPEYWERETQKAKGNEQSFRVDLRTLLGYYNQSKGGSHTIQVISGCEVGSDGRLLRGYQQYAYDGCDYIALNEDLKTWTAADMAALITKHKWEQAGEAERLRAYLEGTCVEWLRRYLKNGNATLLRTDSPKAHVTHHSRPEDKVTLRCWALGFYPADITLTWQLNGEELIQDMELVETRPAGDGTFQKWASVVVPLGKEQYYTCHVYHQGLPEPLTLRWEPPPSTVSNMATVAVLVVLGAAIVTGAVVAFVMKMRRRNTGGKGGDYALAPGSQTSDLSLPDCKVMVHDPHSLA
T1 chain 2: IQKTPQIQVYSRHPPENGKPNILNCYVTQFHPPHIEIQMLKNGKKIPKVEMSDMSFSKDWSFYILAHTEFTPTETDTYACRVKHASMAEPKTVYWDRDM
Briefly: competition against 125I-labelled modified OVA peptide (competitor at the concentration of the report peptide), photo-crosslinking to Kb in microsomes. Particulars: remark: other sources report otherwise.

As for SIINFEKL [native OVA peptide (residues 257-264, SIINFEKL)], the percent of the report peptide competed came to 50%.
